According to patent US20210128683A1 (RISE BIOPHARMACEUTICALS, published 2021):

Experiments:
[1] = biological target: T1, CXCR2 (UniProt P25025 1-360, limits assumed); test: indirect ELISA, ONCO P8-CXCR2 complex formation
T1 construct: also called IL-8R
T1 sequence (looked up): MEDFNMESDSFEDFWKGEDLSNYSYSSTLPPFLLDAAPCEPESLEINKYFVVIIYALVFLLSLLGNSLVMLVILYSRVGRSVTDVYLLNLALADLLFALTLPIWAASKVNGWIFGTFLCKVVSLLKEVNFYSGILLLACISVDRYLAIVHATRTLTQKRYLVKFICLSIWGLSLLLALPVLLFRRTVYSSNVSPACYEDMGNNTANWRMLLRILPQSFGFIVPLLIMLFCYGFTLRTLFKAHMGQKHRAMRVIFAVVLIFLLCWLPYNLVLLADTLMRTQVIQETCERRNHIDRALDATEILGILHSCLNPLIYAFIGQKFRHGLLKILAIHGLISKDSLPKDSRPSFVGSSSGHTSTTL

[2] = biological target: T2, CXCR1 (UniProt P25024 1-350, limits assumed); test: indirect ELISA, ONCO P8-CXCR1 complex formation
T2 construct: also called IL-8R
T2 sequence (looked up): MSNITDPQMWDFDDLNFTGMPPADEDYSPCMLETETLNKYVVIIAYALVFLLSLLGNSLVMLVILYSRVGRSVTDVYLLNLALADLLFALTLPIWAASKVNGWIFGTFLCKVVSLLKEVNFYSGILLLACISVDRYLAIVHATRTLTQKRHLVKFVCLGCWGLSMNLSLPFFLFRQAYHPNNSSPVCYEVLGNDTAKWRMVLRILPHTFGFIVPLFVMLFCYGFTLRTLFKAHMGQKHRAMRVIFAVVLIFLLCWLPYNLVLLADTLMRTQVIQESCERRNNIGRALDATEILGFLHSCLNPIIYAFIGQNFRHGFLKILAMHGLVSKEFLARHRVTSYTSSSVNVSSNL
From the text: The Kd Equation include: (1) i=A_{450 nm}/A^max_{450 nm}, then i=Ligand/Ligand^max; (2) 1/(1−i)=(Ligₜₒₜ/i)/Kd−b, b=fqSrec/Kd.

- Kd [1]: 0.139 µM
- Kd [2]: 0.286 µM
B1: ONCO P-8 (peptide)
chain: GSKELRCQCIRSYSKPFHPKFIKELRVIPASQFCANTEIIVKLSDGRELCLDPKENWVQRVVEKFLKRAENS
notes: Designed analogue of CXCL8 (IL-8), described as an antagonist of CXCR1 and CXCR2; also called chemokine receptor antagonistic modified peptide
